Experimental data published in US20150344570A1 (published 2015).
Substitutions are numbered along the chain they refer to. In names and notes the source's numbering stands. Blank lines part the entries; values can stand above or below the binder they belong to.

Columns and labels:
FcγRIIIa F = FcγRIIIa F (human, UniProt P08637 17-208); test: SPR (Biacore), KD
FcγRIIIa V = FcγRIIIa V (human, UniProt P08637 17-208); test: SPR (Biacore), KD
FcgRIIaR = biological target: T1, FcgRIIaR (human, UniProt P12318 34-217); test: SPR (Biacore); KD of H240-Kn033/H240-Hl033/L73-k0 divided by KD of the variant
T1 construct: extracellular domain; also called FcγRIIa R; FcγRIIa type R; not shown: His tag at the C terminus
T1 sequence (looked up): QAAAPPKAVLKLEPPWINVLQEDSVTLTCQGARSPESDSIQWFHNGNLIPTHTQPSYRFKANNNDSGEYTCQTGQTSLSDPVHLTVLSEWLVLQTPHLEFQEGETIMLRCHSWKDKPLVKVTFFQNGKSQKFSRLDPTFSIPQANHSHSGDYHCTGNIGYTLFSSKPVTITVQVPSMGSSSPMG
Description: (§1) Binding of the produced variants to FcgRIa, FcgRIIaR, FcgRIIaH, FcgRIIb, FcgRIIIaF, and FcgRIIIaV was measured according to the method of Reference Example 8.
(§2) Analysis of interaction between objective antibody and the FcγR was carried out using Biacore T100 (GE Healthcare), Biacore T200, Biacore A100, and Biacore 4000. HBS-EP+ (GE Healthcare) was used as the running buffer, and the measurement temperature was set to 25° C. Chips produced by immobilizing the antigen peptide by the amine coupling method to a Series S sensor Chip CM5 (GE Healthcare), chips produced by allowing preliminarily biotinylated antigen peptides to interact with and immobilize onto a Series S Sensor Chip SA (certified) (GE Healthcare), chips produced by immobilizing Protein L (ACTIGEN, BioVision) to Series S Sencor Chip CM5 (GE Healthcare), or chips produced by immobilizing Protein A/G (Thermo Scientific) to Series S Sencor Chip CM5 (GE Healthcare) were used. Antibodies of interest were captured onto these chips, and allowed to interact to each FcγR diluted with running buffer. To regenerate and repeatedly use the chip, the antibodies captured onto the chip were washed off by reacting 10 mM glycine-HCl, pH 1.5.

FcgRIIaH = biological target: T2, FcgRIIaH (human, UniProt P12318 34-217); test: as above
T2 construct: extracellular domain; also called FcγRIIa H; FcγRIIa type H; not shown: His tag at the C terminus
T2 sequence (looked up): T1 sequence (looked up) with R134H
Description: as §1, §2

FcgRIIb = biological target: T3, FcgRIIb (human, UniProt P31994 43-217); test: as above
T3 construct: extracellular domain; also called FcγRIIb; CD32B; not shown: His tag at the C terminus
T3 sequence (looked up): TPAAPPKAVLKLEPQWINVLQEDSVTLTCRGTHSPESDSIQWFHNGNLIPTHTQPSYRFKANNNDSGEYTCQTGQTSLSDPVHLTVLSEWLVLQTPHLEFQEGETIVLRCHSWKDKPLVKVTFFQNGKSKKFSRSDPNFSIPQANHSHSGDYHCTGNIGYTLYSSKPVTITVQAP
Description: as §1, §2

FcgRIIIaF = biological target: T4, FcgRIIIaF (human, UniProt P08637 17-208); test: as above
T4 construct: extracellular domain; also called FcγRIIIa F; not shown: His tag at the C terminus
T4 sequence (P08637 17-208): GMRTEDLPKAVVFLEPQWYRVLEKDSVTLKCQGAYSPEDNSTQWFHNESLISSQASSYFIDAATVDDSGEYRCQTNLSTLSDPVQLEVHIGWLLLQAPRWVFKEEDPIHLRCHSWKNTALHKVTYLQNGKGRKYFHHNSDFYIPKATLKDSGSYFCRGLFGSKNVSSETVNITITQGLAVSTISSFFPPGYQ
Description: as §1, §2

FcgRIIIaV = biological target: T5, FcgRIIIaV (human, UniProt P08637 17-208); test: as above
T5 construct: extracellular domain; also called FcγRIIIa V; not shown: His tag at the C terminus
T5 sequence (P08637 17-208 F176V limits assumed): as the sequence (P08637 17-208) above, with F160V counted along it
Description: as §1, §2

[1] = biological target: T6, FcgRIIa R type extracellular domain, C-terminal His tag (human, UniProt P12318 34-217); test: SPR (Biacore); KD of H240-Kn120/H240-Hl068/L73-k0 divided by KD of the variant
T6 construct: extracellular domain; Soluble analyte in Biacore; also called FcγRIIa R; FcγRIIa(R); not shown: His tag at the C terminus
T6 sequence (looked up): T1 sequence (looked up)
Description: (§3) H240-Kn179/H240-H1089/L73-k0, H240-Kn180/H240-Hl089/L73-k0, H240-Kn192/H240-Hl204/L73-k0, and H240-Kn193/H240-Hl204/L73-k0 were prepared by combining each of H240-Kn192 and H240-Kn193 as an H chain, L73-k0 as the L chain, and H240-Hl089 and H240-Hl204 as the other H chain according to the method described in Reference Example 1. The variants described above were assessed for their binding to FcγR according to the method described in Reference Example 8.
as §2

[2] = biological target: T7, FcgRIIa H type extracellular domain, C-terminal His tag (human, UniProt P12318 34-217); test: as above
T7 construct: extracellular domain; Soluble analyte in Biacore; also called FcγRIIa H; FcγRIIa(H); not shown: His tag at the C terminus
T7 sequence (looked up): T1 sequence (looked up) with R134H
Description: as §3, §2

[3] = biological target: T8, FcgRIIb extracellular domain, C-terminal His tag (human, UniProt P31994 43-217); test: as above
T8 construct: extracellular domain; Soluble analyte in Biacore; also called FcγRIIb; not shown: His tag at the C terminus
T8 sequence (looked up): T3 sequence (looked up)
Description: as §3, §2

[4] = biological target: T9, FcgRIIIa F type extracellular domain, C-terminal His tag (human, UniProt P08637 17-208); test: as above
T9 construct: extracellular domain; Soluble analyte in Biacore; also called FcγRIIIa F; not shown: His tag at the C terminus
T9 sequence (P08637 17-208): as the sequence (P08637 17-208) above
Description: as §3, §2

[5] = biological target: T10, FcgRIIIa V type extracellular domain, C-terminal His tag (human, UniProt P08637 17-208); test: as above
T10 construct: extracellular domain; Soluble analyte in Biacore; also called FcγRIIIa V; not shown: His tag at the C terminus
T10 sequence (P08637 17-208 F176V): as the sequence (P08637 17-208) above, with F160V counted along it
Description: as §3, §2

Sequence of FcγRIIIa V (P08637 17-208): as the sequence (P08637 17-208) above
Sequence of FcγRIIIa F (P08637 17-208): as above

B2: H240-Kn033/H240-Hl033/L73-k0 (antibody, human IgG1, kappa)
heavy 1: not shown
heavy 2: not shown
light: DIQMTQSPSSLSASVGDRVTITCRASQDIHKYIAWYQQKPGQAPRLLIQYTSTLQPGVPSRFSGSGSGTDYTFTISSLQPEDIATYYCLQYEQLRTFGGGTKVEIKRTVAAPSVFIFPPSDEQLKSGTASVVCLLNNFYPREAKVQWKVDNALQSGNSQESVTEQDSKDSTYSLSSTLTLSKADYEKHKVYACEVTHQGLSSPVTKSFNRGEC
notes: Anti-epiregulin antibody; native IgG1 with only knobs-into-holes alterations
fold 2aR (FcgRIIaR): 1 fold
fold 2aH (FcgRIIaH): 1 fold
fold 2b (FcgRIIb): 1 fold
fold 3aF (FcgRIIIaF): 1 fold
fold 3aV (FcgRIIIaV): 1 fold

B6: H240-Kn184/H240-Hl068/L73-k0 (antibody, human IgG1, kappa)
heavy 1: QDQLVQSGAEVKKPGASVKVSCKASGFNIKDTYIQWVRQAPGQGLEWMGRIDPLRKQTKYREKFEGRVTITADTSTNTAYMELSSLRSEDTAVYYCVRSGREFDYWGQGTLVTVSSASTKGPSVFPLAPSSKSTSGGTAALGCLVKDYFPEPVTVSWNSGALTSGVHTFPAVLQSSGLYSLSSVVTVPSSSLGTQTYICNVNHKPSNTKVDKKVEPKSCDKTHTCPPCPAPEEYWGPMVFLFPPKPKDTLMISRTPEVTCVVVDVSDEDPEVKFNWYVDGVEVHNAKTKPREEQYNATYRVVSVLTVLHQDWLNGKEYKCKVSNKDLPAPIEKTISKAKGQPREPQVCTLPPSRDELTKNQVSLWCLVKGFYPSDIAVEWESNGQPENNYKTTPPVLDSDGSFFLYSKLTVDKSRWQQGNVFSCSVMHEALHNHYTQKSLSLSP
heavy 2: QDQLVQSGAEVKKPGASVKVSCKASGFNIKDTYIQWVRQAPGQGLEWMGRIDPLRKQTKYREKFEGRVTITADTSTNTAYMELSSLRSEDTAVYYCVRSGREFDYWGQGTLVTVSSASTKGPSVFPLAPSSKSTSGGTAALGCLVKDYFPEPVTVSWNSGALTSGVHTFPAVLQSSGLYSLSSVVTVPSSSLGTQTYICNVNHKPSNTKVDKKVEPKSCDKTHTCPPCPAPELLGGPSVFLFPPKPKDTLMISRTPEVTCVVVDVSHEEPEVKFNWYVDGVEVHNAKTKPREEQYNSTYRVVSVLTVLHQDWLNGKEYKCKVSNDALPKPIEETISKAKGQPREPQVYTLPPSRCELTKNQVSLSCAVKGFYPSDIAVEWESNGQPENNYKTTPPVLDSDGSFFLVSKLTVDKSRWQQGNVFSCSVMHEALHNHYTQKSLSLSP
light: B2 light
fold binding activity against H240-Kn033/H240-Hl033/L73-k0 (FcγRIIIa F): ≥ 100 fold
fold binding activity against H240-Kn033/H240-Hl033/L73-k0 (FcγRIIIa V): ≥ 100 fold

B7: H240-Kn180/H240-Hl089/L73-k0 (antibody, human IgG1, kappa)
heavy 1: B6 heavy 1 with E233Y, E293R
heavy 2: B6 heavy 2 with G235T
light: B2 light
notes: Combination of E294K in the Kn chain and G236T in the Hl chain; also called H240-Kn180/H240-HI089/L73-k0
relative KD [1]: 1.3
relative KD [2]: 1.1
relative KD [3]: 0.4
relative KD [4]: 0.1
relative KD [5]: 0

B8: H240-Kn179/H240-Hl089/L73-k0 (antibody, human IgG1, kappa)
heavy 1: B6 heavy 1 with E233Y, E293K
heavy 2: B6 heavy 2 with G235T
light: B2 light
notes: Combination of E294R in the Kn chain and G236T in the Hl chain; also called H240-Kn179/H240-HI089/L73-k0
relative KD [1]: 1.1
relative KD [2]: 0.9
relative KD [3]: 0.4
relative KD [4]: 0.1
relative KD [5]: 0

B9: H240-Kn192/H240-Hl204/L73-k0 (antibody, human IgG1, kappa)
heavy 1: B6 heavy 1 with E233Y, Y234N, E293K
heavy 2: B6 heavy 2 with G235T, I331E
light: B2 light
notes: H240-Kn192 is H240-Kn120 with Y235N and E294K; also called H240-Kn192/H240-HI204/L73-k0
relative KD [1]: 1.1
relative KD [2]: 1
relative KD [3]: 0.5
relative KD [4]: 0.2
relative KD [5]: 0.2

B10: H240-Kn193/H240-Hl204/L73-k0 (antibody, human IgG1, kappa)
heavy 1: B6 heavy 1 with E233Y, Y234N, E293R
heavy 2: B6 heavy 2 with G235T, I331E
light: B2 light
notes: H240-Kn193 is H240-Kn120 with Y235N and E294R; also called H240-Kn193/H240-HI204/L73-k0
relative KD [1]: 1.3
relative KD [2]: 1.2
relative KD [3]: 0.5
relative KD [4]: 0.2
relative KD [5]: 0.2

Continued, values first:

fold binding activity against H240-Kn033/H240-Hl033/L73-k0 (FcγRIIIa F): ≥ 100 fold
fold binding activity against H240-Kn033/H240-Hl033/L73-k0 (FcγRIIIa V): ≥ 100 fold
B1: H240-Kn208/H240-Hl076/L73-k0 (antibody, human IgG1, kappa)
heavy 1: B6 heavy 1 with E233D, Y234Q, D269E, D326A
heavy 2: B6 heavy 2 with K329M
light: B2 light

fold binding activity against H240-Kn033/H240-Hl033/L73-k0 (FcγRIIIa F): ≥ 100 fold
fold binding activity against H240-Kn033/H240-Hl033/L73-k0 (FcγRIIIa V): ≥ 100 fold
B3: H240-Kn221/H240-Hl068/L73-k0 (antibody, human IgG1, kappa)
heavy 1: B6 heavy 1 with E233T
heavy 2: B6 heavy 2
light: B2 light

fold binding activity against H240-Kn033/H240-Hl033/L73-k0 (FcγRIIIa F): ≥ 100 fold
fold binding activity against H240-Kn033/H240-Hl033/L73-k0 (FcγRIIIa V): ≥ 100 fold
B4: H240-Kn199/H240-Hl068/L73-k0 (antibody, human IgG1, kappa)
heavy 1: B6 heavy 1 with E233L
heavy 2: B6 heavy 2
light: B2 light

fold binding activity against H240-Kn033/H240-Hl033/L73-k0 (FcγRIIIa F): ≥ 100 fold
fold binding activity against H240-Kn033/H240-Hl033/L73-k0 (FcγRIIIa V): ≥ 100 fold
B5: H240-Kn217/H240-Hl068/L73-k0 (antibody, human IgG1, kappa)
heavy 1: B6 heavy 1 with E233D
heavy 2: B6 heavy 2
light: B2 light
